From US8349320 come the findings set out here.

The target of assay [1] is human HVEM mutant E65A expressed on cells (human) (UniProt Q92956). As to the kind of experiment: flow cytometry saturation binding on 293T cells transfected with mutant HVEM. For orientation: Flow cytometry measures light scatter and fluorescence of single cells or particles in a stream.
For assay [2], the target named is human HVEM mutant E76A expressed on cells (human) (UniProt Q92956). The description is as above.
In assay [3] the target is human HVEM mutant K64A expressed on cells (human) (UniProt Q92956). The assay is described as above.
Sequence of human HVEM mutant K64A expressed on cells (human) (Q92956 39-283 K64A): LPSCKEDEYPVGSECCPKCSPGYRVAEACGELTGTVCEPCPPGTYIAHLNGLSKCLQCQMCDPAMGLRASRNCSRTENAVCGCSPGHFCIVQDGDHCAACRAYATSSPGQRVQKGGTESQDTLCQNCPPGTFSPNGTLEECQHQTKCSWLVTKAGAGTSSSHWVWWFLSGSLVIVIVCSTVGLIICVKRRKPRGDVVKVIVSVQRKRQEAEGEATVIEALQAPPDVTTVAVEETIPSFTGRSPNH
In assay [4] the target is human HVEM mutant R113A expressed on cells (human) (UniProt Q92956). The description is as above.
Sequence of human HVEM mutant R113A expressed on cells (human) (Q92956 39-283 R113A): as the sequence (Q92956 39-283 K64A) above, with A26K, R75A counted along it
Assay [5] addresses human HVEM mutant R62A expressed on cells (human) (UniProt Q92956). The description is as above.
For assay [6], the target named is human HVEM mutant S58A expressed on cells (human) (UniProt Q92956). The assay is described as above.
Sequence of human HVEM mutant S58A expressed on cells (human) (Q92956 39-283 S58A): as the sequence (Q92956 39-283 K64A) above, with S20A, A26K counted along it
Assay [7] addresses human HVEM mutant Y47F expressed on cells (human) (UniProt Q92956). The assay is described as above.
In assay [8] the target is human HVEM mutant Y61F expressed on cells (human) (UniProt Q92956). Described as above.
Sequence of human HVEM mutant Y61F expressed on cells (human) (Q92956 39-283 Y61F): as the sequence (Q92956 39-283 K64A) above, with Y23F, A26K counted along it
In assay [9] the target is human HVEM (wild type) expressed on cells (human) (UniProt Q92956). As to the kind of experiment: flow cytometry saturation binding on 293T cells transfected with wild type HVEM.
Sequence of human HVEM (wild type) expressed on cells (human) (Q92956 39-283): as the sequence (Q92956 39-283 K64A) above, with A26K counted along it

Sequence of human HVEM mutant R62A expressed on cells (human) (Q92956 39-283 R62A): as the sequence (Q92956 39-283 K64A) above, with R24A, A26K counted along it
Sequence of human HVEM mutant Y47F expressed on cells (human) (Q92956 39-283 Y47F): as the sequence (Q92956 39-283 K64A) above, with Y9F, A26K counted along it
Sequence of human HVEM mutant E76A expressed on cells (human) (Q92956 39-283 E76A): as the sequence (Q92956 39-283 K64A) above, with A26K, E38A counted along it
Sequence of human HVEM mutant E65A expressed on cells (human) (Q92956 39-283 E65A): as the sequence (Q92956 39-283 K64A) above, with A26K, E27A counted along it

B1: recombinant soluble human LIGHT truncated at G66 (ligand, from a related filing)
chain: GEMVTRLPDGPAGSWEQLIQERRSHEVNPAAHLTGANSSLTGSGGPLLWETQLGLAFLRGLSYHDGALVVTKAGYYYIYSKVQLGGVGCPLGLASTITHGLYKRTPRYPEELELLVSQQSPCGRATSSSRVWWDSSFLGGVVHLEAGEEVVVRVLDERLVRLRDGTRSYFGAFMV
Regarding B1, the Kd (in general, the equilibrium constant for the complex coming apart) stood at 18 nM in [1]; 22 nM in [2]; 14 nM in [3]; 18 nM in assay [4]; 17 nM in assay [5]; 19 nM in assay [6]. For the same molecule, the values for the Kd in [7], in assay [8] and in assay [9] were 14 nM, 17 nM and 13 nM, respectively.
